Assay results published in patent US20150164984A1, “Colicins for Treating Bacterial Infections” (The University Court of the University of Glasgow, priority 2012, published 2015).

Columns and labels:
[1] = system: adherent invasive E. coli isolates (AIEC) 95, 419, 615 and LF82; assay: spot test of purified colicin on a growing lawn of cells (zones of inhibition); assay type: cell-based; details: isolates 95, 419, 615 and LF82; 2 μl drop of 0.2 mg/ml colicin, 18 h
Experimental: Briefly, 25 μl of a log phase bacterial culture (OD600=0.6) was added to 5 ml of molten 0.8% agarose and poured on top of an LB agar plate. A 2 μl drop of each colicin (0.2 mg/ml) was spotted onto the overlay plate. The plates were incubated for 18 h and examined for zones of inhibition. All E. coli isolates tested were sensitive to the cytotoxic activity of the four colicin proteins, as indicated by the presence of clear zones representing cell killing (not shown).

[2] = system: AIEC in the biofilm state; assay: MBEC biofilm assay, viability by XTT; assay type: cell-based, E. coli; details: for ability to kill AIEC in the biofilm state: 6 additional strains of AIEC; for antimicrobial activity against biofilm-associated cells compared with ampicillin, metronidazole and rifaximin: all isolates; for relative effectiveness among colicins in killing AIEC in the biofilm state: multiple AIEC strains
Text: The clinically relevant state for AI E. coli in the infected gut mucosa is the biofilm state in which bacteria show enhanced tolerance to antibiotics. We therefore tested the ability of colicins to kill AI E. coli in the biofilm state using the MBEC Physiology and Genetics Assay (Innovotech). In this assay, biofilm growth occurs on 96 identical pegs protruding from the lid of a 96-well microtitre plate.
To determine the cytotoxicity of colicins against LF82 biofilms we compared the % cell survival of AIEC in biofilms treated with colicins with those exposed to antibiotics which are frequently prescribed in the treatment of Crohn's disease (FIG. 1). Biofilms were formed on the MBEC™ 96-peg plate platform for 24 h, then challenged for 1 h with 150 μl dilutions of the antibiotics (ampicillin, ciprofloxacin, metronidazole and rifaximin) and colicins (E1, E3, E9 and D) in sterile PBS in the concentration range 0.002 μg/ml-200 μg/ml. All dilutions of antimicrobials were done in triplicate and control antimicrobial-free biofilms were treated with 150 μl of sterile PBS. Following treatment, the viability of biofilm-associated cells was tested using the metabolic dye XTT. The XTT salt changes colour when it is metabolised by viable cells. This colour change can be compared to untreated antimicrobial-free biofilms, giving an indication of the percentage survival in biofilms exposed to the antimicrobials.
We further tested the ability of colicins E1 (a pore-forming colicin) E3 (a rRNase), E9 (a DNase), D (a tRNase) and IA (a pore-forming colicin) to kill 6 additional strains of AIEC in the biofilm state.

[3] = system: intracellular E. coli LF82 in infected murine macrophages (J774); assay: macrophage model of AIEC infection, colony counts of intracellular bacteria; assay type: cell-based; details: for killing of intracellular LF82 in infected macrophages: infected macrophages treated for 4 and 24 hours, FIG. 4
Experimental: AI E. coli are able to infect and replicate within macrophages and epithelial cells. To determine if colicin E1 is able to kill intracellular bacteria raw murine macrophages (J774) were infected with AI E. coli LF82 and treated with colicin E1 (FIG. 3).
Raw murine macrophages (J774) were grown in 24-well tissue culture plates in RPMI tissue culture media (containing 3% fetal calf serum, 1% […], 1% pen/strep) at 37° C. in 5% CO2 until the cells reached 70-80% confluency. The macrophages were then infected with E. coli LF82 at a multiplicity of infection of 50 (MOI 50). After 2 h of infection, the macrophages were exposed to the antibiotic gentamicin (100 μg/ml) to kill any bacteria outside the macrophage which hadn't successfully invaded the cell. The LF82-infected macrophages were then treated with colicin E1 (10, 0.1, 0.001 μg/ml) for 3 h at 37° C. The macrophages were then scraped from the surface of the plate, lysed with Triton X and the intra-cellular bacteria were plated on LB agar containing 50 μg/ml ampicillin for selection of LF82. The plates were incubated overnight at 37° C. and colony counts were performed.
Experiments were performed as described for colicin E1 except that infected macrophages were treated with colicin for 4 and 24 hours.

[4] = biological target: outer membrane receptor BtuB (Escherichia coli, UniProt P06129); details: read-out: affinity for outer membrane receptor BtuB; Housden et al., 2005; cited from earlier work
Sequence of outer membrane receptor BtuB (P06129 21-614): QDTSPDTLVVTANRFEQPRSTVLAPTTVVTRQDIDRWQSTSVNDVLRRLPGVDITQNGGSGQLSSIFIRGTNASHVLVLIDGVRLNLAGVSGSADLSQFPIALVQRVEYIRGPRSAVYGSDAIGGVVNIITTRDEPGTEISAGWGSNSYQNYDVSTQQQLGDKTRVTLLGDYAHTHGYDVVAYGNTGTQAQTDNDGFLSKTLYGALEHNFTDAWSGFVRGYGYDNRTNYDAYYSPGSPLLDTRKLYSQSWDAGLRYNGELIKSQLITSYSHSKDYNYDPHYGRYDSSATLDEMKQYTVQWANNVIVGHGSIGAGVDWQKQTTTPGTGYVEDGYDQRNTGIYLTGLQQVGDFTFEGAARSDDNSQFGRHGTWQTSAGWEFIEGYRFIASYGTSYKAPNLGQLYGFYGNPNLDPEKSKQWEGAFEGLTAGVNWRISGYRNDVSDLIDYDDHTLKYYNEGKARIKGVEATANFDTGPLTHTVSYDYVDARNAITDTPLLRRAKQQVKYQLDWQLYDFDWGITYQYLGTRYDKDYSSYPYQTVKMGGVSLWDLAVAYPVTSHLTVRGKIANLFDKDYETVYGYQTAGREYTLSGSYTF

B1: Colicin E3 (protein, listed as Escherichia coli)
chain: MSGGDGRGHNTGAHSTSGNINGGPTGLGVGGGASDGSGWSSENNPWGGGSGSGIHWGGGSGHGNGGGNGNSGGGSGTGGNLSAVAAPVAFGFPALSTPGAGGLAVSISAGALSAAIADIMAALKGPFKFGLWGVALYGVLPSQIAKDDPNMMSKIVTSLPADDITESPVSSLPLDKATVNVNVRVVDDVKDERQNISVVSGVPMSVPVVDAKPTERPGVFTASIPGAPVLNISVNNSTPAVQTLSPGVTNNTDKDVRPAGFTQGGNTRDAVIRFPKDSGHNAVYVSVSDVLSPDQVKQRQDEENRRQQEWDATHPVEAAERNYERARAELNQANEDVARNQERQAKAVQVYNSRKSELDAANKTLADAIAEIKQFNRFAHDPMAGGHRMWQMAGLKAQRAQTDVNNKQAAFDAAAKEKSDADAALSSAMESRKKKEDKKRSAENNLNDEKNKPRKGFKDYGHDYHPAPKTENIKGLGDLKPGIPKTPKQNGGGKRKRWTGDKGRKIYEWDSQHGELEGYRASDGQHLGSFDPKTGNQLKGPDPKRNIKKYL
For B1, the “sensitivity of AIEC isolates in spot tests” value (shortened to “sensitivity of AIEC isolates”) [1] was “sensitive” and the “ability to kill AIEC in the biofilm state” value (shortened to “ability to kill AIEC”) [2] was “good killing activity”.

B2: Colicin Ia (protein, listed as Escherichia coli)
chain: MSDPVRITNPGAESLGYDSDGHEIMAVDIYVNPPRVDVFHGTPPAWSSFGNKTIWGGNEWVDDSPTRSDIEKRDKEITAYKNTLSAQQKENENKRTEAGKRLSAAIAAREKDENTLKTLRAGNADAADITRQEFRLLQAELREYGFRTEIAGYDALRLHTESRMLFADADSLRISPREARSLIEQAEKRQKDAQNADKKAADMLAEYERRKGILDTRLSELEKNGGAALAVLDAQQARLLGQQTRNDRAISEARNKLSSVTESLNTARNALTRAEQQLTQQKNTPDGKTIVSPEKFPGRSSTNHSIVVSGDPRFAGTIKITTSAVIDNRANLNYLLSHSGLDYKRNILNDRNPVVTEDVEGDKKIYNAEVAEWDKLRQRLLDARNKITSAESAVNSARNNLSARTNEQKHANDALNALLKEKENIRNQLSGINQKIAEEKRKQDELKATKDAINFTTEFLKSVSEKYGAKAEQLAREMAGQAKGKKIRNVEEALKTYEKYRADINKKINAKDRAAIAAALESVKLSDISSNLNRFSRGLGYAGKFTSLADWITEFGKAVRTENWRPLFVKTETIIAGNAATALVALVFSILTGSALGIIGYGLLMAVTGALIDESLVEKANKFWGI
In the case of B2, the “ability to kill AIEC” value [2] is reported as “good killing activity”.

B3: Colicin D (protein, listed as Escherichia coli)
chain: MSDYEGSGPTEGIDYGHSMVVWPSTGLISGGDVKPGGSSGIAPSMPPGWGDYSPQGIALVQSVLFPGIIRRIILDKELEEGDWSGWSVSVHSPWGNEKVSAARTVLENGLRGGLPEPSRPAAVSFARLEPASGNEQKIIRLMVTQQLEQVTDIPASQLPAAGNNVPVKYRLMDLMQNGTQYMAIIGGIPMTVPVVDAVPVPDRSRPGTNIKDVYSAPVSPNLPDLVLSVGQMNTPVLSNPEIQEEGVIAETGNYVEAGYTMSSNNHDVIVRFPEGSDVSPLYISTVEILDSNGLSQRQEAENKAKDDFRVKKEEAVARAEAEKAKAELFSKAGVNQPPVYTQEMMERANSVMNEQGALVLNNTASSVQLAMTGTGVWTAAGDIAGNISKFFSNALEKVTIPEVSPLLMRISLGALWFHSEEAGAGSDIVPGRNLEAMFSLSAQMLAGQGVVIEPGATSVNLPVRGQLINSNGQLALDLLKTGNESIPAAVPVLNAVRDTATGLDKITLPAVVGAPSRTILVNPVPQPSVPTDTGNHQPVPVTPVHTGTEVKSVEMPVTTITPVSDVGGLRDFIYWRPDAAGTGVEAVYVMLNDPLDSGRFSRKQLDKKYKHAGDFGISDTKKNRETLTKFRDAIEEHLSDKDTVEKGTYRREKGSKVYFNPNTMNVVIIKSNGEFLSGWKINPDADNGRIYLETGEL
With B3 the “sensitivity of AIEC isolates” value [1] was “sensitive” and the “ability to kill AIEC” value [2] was “good killing activity”.

B4: Colicin E1 (protein, listed as Escherichia coli)
chain: METAVAYYKDGVPYDDKGQVIITLLNGTPDGSGSGGGGGKGGSKSESSAAIHATAKWSTAQLKKTQAEQAARAKAAAEAQAKAKANRDALTQRLKDIVNEALRHNASRTPSATELAHANNAAMQAEDERLRLAKAEEKARKEAEAAEKAFQEAEQRRKEIEREKAETERQLKLAEAEEKRLAALSEEAKAVEIAQKKLSAAQSEVVKMDGEIKTLNSRLSSSIHARDAEMKTLAGKRNELAQASAKYKELDELVKKLSPRANDPLQNRPFFEATRRRVGAGKIREEKQKQVTASETRINRINADITQIQKAISQVSNNRNAGIARVHEAEENLKKAQNNLLNSQIKDAVDATVSFYQTLTEKYGEKYSKMAQELADKSKGKKIGNVNEALAAFEKYKDVLNKKFSKADRDAIFNALASVKYDDWAKHLDQFAKYLKITGHVSFGYDVVSDILKIKDTGDWKPLFLTLEKKAADAGVSYVVALLFSLLAGTTLGIWGIAIVTGILCSYIDKNKLNTINEVLGI
In the case of B4, the “sensitivity of AIEC isolates” value [1] is reported as “sensitive”, the “reduction in the number of bacteria recovered from the macrophages” value ([3]; 10 μg/ml, 3 h, LF82-infected J774 macrophages) is reported as roughly 80% and the “ability to kill AIEC” value [2] is reported as “good killing activity”. For the same molecule, the “antimicrobial activity against biofilm-associated cells compared with ampicillin, metronidazole and rifaximin” value [2] was “superior antimicrobial activity” and the “relative effectiveness among colicins in killing AIEC in the biofilm state” value [2] was “most effective”.

B5: Colicin E9 (protein, listed as Escherichia coli)
chain: MSGGDGRGHNTGAHSTSGNINGGPTGIGVSGGASDGSGWSSENNPWGGGSGSGIHWGGGSGRGNGGGNGNSGGGSGTGGNLSAVAAPVAFGFPALSTPGAGGLAVSISASELSAAIAGIIAKLKKVNLKFTPFGVVLSSLIPSEIAKDDPNMMSKIVTSLPADDITESPVSSLPLDKATVNVNVRVVDDVKDERQNISVVSGVPMSVPVVDAKPTERPGVFTASIPGAPVLNISVNDSTPAVQTLSPGVTNNTDKDVRPAGFTQGGNTRDAVIRFPKDSGHNAVYVSVSDVLSPDQVKQRQDEENRRQQEWDATHPVEAAERNYERARAELNQANEDVARNQERQAKAVQVYNSRKSELDAANKTLADAIAEIKQFNRFAHDPMAGGHRMWQMAGLKAQRAQTDVNNKQAAFDAAAKEKSDADAALSAAQERRKQKENKEKDAKDKLDKESKRNKPGKATGKGKPVGDKWLDDAGKDSGAPIPDRIADKLRDKEFKSFDDFRKAVWEEVSKDPELSKNLNPSNKSSVSKGYSPFTPKNQQVGGRKVYELHHDKPISQGGEVYDMDNIRVTTPKRHIDIHRGK
In the case of B5, the Kd [4] is given as 2 nM, the “sensitivity of AIEC isolates” value [1] is given as “sensitive” and the “killing of intracellular LF82 in infected macrophages” value [3] is given as “able to kill intracellular LF82”. For the same molecule, the “ability to kill AIEC” value [2] was “good killing activity”, the “antimicrobial activity against biofilm-associated cells compared with ampicillin, metronidazole and rifaximin” value [2] was “superior antimicrobial activity” and the “relative effectiveness among colicins in killing AIEC in the biofilm state” value [2] was “most effective”.

B6: colicin E9 H575A: catalytically inactive colicin E9 variant (protein, UniProt P09883 1-582, looked up, variant H575A)
Colicin-E9: MSGGDGRGHNTGAHSTSGNINGGPTGIGVSGGASDGSGWSSENNPWGGGSGSGIHWGGGSGRGNGGGNGNSGGGSGTGGNLSAVAAPVAFGFPALSTPGAGGLAVSISASELSAAIAGIIAKLKKVNLKFTPFGVVLSSLIPSEIAKDDPNMMSKIVTSLPADDITESPVSSLPLDKATVNVNVRVVDDVKDERQNISVVSGVPMSVPVVDAKPTERPGVFTASIPGAPVLNISVNDSTPAVQTLSPGVTNNTDKDVRPAGFTQGGNTRDAVIRFPKDSGHNAVYVSVSDVLSPDQVKQRQDEENRRQQEWDATHPVEAAERNYERARAELNQANEDVARNQERQAKAVQVYNSRKSELDAANKTLADAIAEIKQFNRFAHDPMAGGHRMWQMAGLKAQRAQTDVNNKQAAFDAAAKEKSDADAALSAAQERRKQKENKEKDAKDKLDKESKRNKPGKATGKGKPVGDKWLDDAGKDSGAPIPDRIADKLRDKEFKSFDDFRKAVWEEVSKDPELSKNLNPSNKSSVSKGYSPFTPKNQQVGGRKVYELHHDKPISQGGEVYDMDNIRVTTPKRAIDIHRGK
For B6, the “killing of intracellular LF82 in infected macrophages” value [3] was “no killing”.
